Measured values taken from patent US20240383983A1 (ABL BIO, published 2024).

Key:
[1] = molecular target: T1, Fc fused human B7-H4 protein (human, UniProt Q7Z7D3 29-258, limits assumed); test: ELISA, Fc fused human B7-H4 coated at 1 µg/ml, anti-human Fab HRP
T1 construct: Coated on ELISA plates; not shown: Fc part
T1 sequence (looked up): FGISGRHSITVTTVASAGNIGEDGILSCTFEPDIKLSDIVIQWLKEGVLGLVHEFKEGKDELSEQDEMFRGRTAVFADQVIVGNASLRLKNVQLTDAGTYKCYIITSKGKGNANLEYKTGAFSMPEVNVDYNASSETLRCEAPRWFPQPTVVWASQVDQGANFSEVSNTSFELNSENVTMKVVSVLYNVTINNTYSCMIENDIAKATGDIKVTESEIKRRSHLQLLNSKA
Experimental: To evaluate the antigen binding activity of the humanized antibody, 16E3H3 M1 was subjected to ELISA. Briefly, ELISA plates were coated with Fc fused human B7-H4 protein at 1 μg/ml in PBS, 100 ul/well at 4° C. overnight, then blocked with 200 ul/well of 1% BSA in PBS at 37° C. Four fold dilutions of monoclonal antibody starting from 100 nM were added to each well and incubated for 1 hours at 37° C. The plates were washed with PBST (0.05% Tween 20 in PBS) and then incubated with HRP (Horse Radish Peroxidase) conjugated Anti-human Fab for 1 hr at 37° C. The plates were washed with PBST (Tween 20 0.05% in PBS) developed with TMB substrate and analyzed by spectrophotometer at OD 450 nm˜650 nm. As shown FIG. 2. 16E3H3 M1 bound to human B7-H4 with dose dependent manner.

[2] = molecular target: T2, human B7-H4 expressed on cells (CHOK-1 B7-H4, SK-BR3, CAMA-1, MDA-MB-468, MX-1, OVCAR-3) (human, UniProt Q7Z7D3 25-282); test: FACS on CAMA-1 cells, FITC anti-human IgG1 detection; y axis 'Fold of induction'
T2 construct: whole, on cells; also called B7-H4 expressed cell line; B7-H4 positive cancer cell lines
T2 sequence (looked up): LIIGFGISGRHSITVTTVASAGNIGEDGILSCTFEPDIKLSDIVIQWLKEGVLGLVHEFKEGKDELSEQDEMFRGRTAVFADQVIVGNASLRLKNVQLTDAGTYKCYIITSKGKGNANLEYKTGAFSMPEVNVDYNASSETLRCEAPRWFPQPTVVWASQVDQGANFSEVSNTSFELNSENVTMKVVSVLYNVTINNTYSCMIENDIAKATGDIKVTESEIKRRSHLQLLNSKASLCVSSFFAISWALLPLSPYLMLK
Experimental: (§1) To evaluate the tumor antigen binding property, 16E3H3 M1 clone was analyzed for its binding to B7-H4-expressing mammalian cells by FACS. Briefly, B7-H4 positive cell (MX-1, CAMA-1, SK-BR3 and OVCAR-3) or B7-H4 negative cells (PANC-1) were incubated with M40413 antibody. After wash by FACS buffer (1% BSA in PBS), the FITC-anti-human IgG 1 antibody was added to each well and incubated at 4° C. for 45 min. The MFI of FITC was evaluated by FACS Calibur.

[3] = molecular target: T2, human B7-H4 expressed on cells (CHOK-1 …); test: FACS on SK-BR3 cells, FITC anti-human IgG1 detection; y axis 'Fold of induction'
Experimental: as §1

EC50 [1]: 0.079 nM | EC50 (read off the curve) [2]: ~5 nM | EC50 (read off the curve) [3]: ~4 nM
B1: 16E3H3 M1 monospecific antibody (humanized anti-B7-H4 IgG1) (antibody, V domains shown)
VH: QVQLVQSGAEVKKPGASVKVSCKASGYPFTTYGMNWVKQAPGQGLEWMGWIDTYSGVPTYADDFKGRVTMTRDTSISTAYMELSRLRSDDTAVYFCARRSFWYFDVWGAGTTVTVSS
VL: DVVMTQSPLSLPVTLGQPASISCRSSQSLVHSNANTYLHWYLQRPGQSPRLLIYKVSNRFSGVPDRFSGSGSGTDFTLKISRVEAEDVGVYFCSQSTHVPWTFGGGTKVEIKR
notes: Humanized 16E3H3 with G29A in CDR-L1 for PTM removal; also called M40413; 16E3H3 M1 clone
